# Test results: US20180258181A1 (Bayer, published 2018)
# Positions count from the first letter of the chain named.
# T1: murine mesothelin (recombinant) (murine, UniProt Q61468 298-600, limits assumed)
# T1 construct: Covalently immobilized on the Biacore chip
# T1 sequence (looked up): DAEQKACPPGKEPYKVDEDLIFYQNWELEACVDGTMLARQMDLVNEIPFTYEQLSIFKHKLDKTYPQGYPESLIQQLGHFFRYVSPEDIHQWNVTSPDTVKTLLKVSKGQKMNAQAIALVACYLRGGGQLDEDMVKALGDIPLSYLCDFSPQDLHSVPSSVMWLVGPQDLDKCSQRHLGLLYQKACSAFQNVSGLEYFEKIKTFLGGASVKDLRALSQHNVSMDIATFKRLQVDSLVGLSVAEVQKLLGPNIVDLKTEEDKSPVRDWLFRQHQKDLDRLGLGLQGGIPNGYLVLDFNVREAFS
# B1: MF-J IgG (antibody, V domains shown)
# VH: QVELVQSGAEVKKPGESLKISCKGSGYSFTNYWIGWVRQMPGKGLEWMGVIMPSDSYTRYSPSFQGQVTISADKSISTAYLQWSSLKASDTAMYYCARYGHGMYGGALDVWGQGTLVTVSS
# VL: DIVLTQSPATLSLSPGERATLSCRASQSVRSSRLAWYQQKPGQAPRLLIYGASKRATGVPARFSGSGSGTDFTLTISSLEPEDFATYYCQQYYDFPPTFGQGTKVEIKR
# B2: MF-A IgG (antibody, V domains shown)
# VH: QVQLVQSGAEVKKPGSSVKVSCKASGGTFSSYYFSWVRQAPGQGLEWMGGIIPKFGSANYAQKFQGRVTITADESTSTAYMELSSLRSEDTAVYYCARRTSMDYWGQGTLVTVSS
# VL: DIALTQPASVSGSPGQSITISCTGTSSDVGGYNYVSWYQQHPGKAPKLMIYSVSKRPSGVSNRFSGSKSGNTASLTISGLQAEDEADYYCGAWAHMSLGKVFGGGTKLTVLG
# B3: MOR06640 IgG (antibody, V domains shown)
# VH: B1 VH with E3Q
# VL: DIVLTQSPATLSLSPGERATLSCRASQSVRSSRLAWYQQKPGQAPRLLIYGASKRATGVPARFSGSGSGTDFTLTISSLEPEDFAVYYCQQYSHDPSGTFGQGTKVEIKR
# B4: MOR06642 IgG (antibody, V domains shown)
# VH: B1 VH with E3Q
# VL: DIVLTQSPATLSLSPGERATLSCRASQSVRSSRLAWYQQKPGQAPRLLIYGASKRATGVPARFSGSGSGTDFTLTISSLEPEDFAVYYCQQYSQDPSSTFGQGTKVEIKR
# B5: MOR06631 IgG (antibody, V domains shown)
# VH: B1 VH with E3Q, V50F, M52W, S54V, Y57W, R59Q
# VL: B1 VL
# B6: MOR07111 IgG (antibody, V domains shown)
# VH: B1 VH with E3Q
# VL: B1 VL with T86V, Y92F, D94S, F95K, P97I
# B7: MOR06669 IgG (antibody, V domains shown)
# VH: B1 VH with E3Q, V50I, M52W, S54I, Y57F, R59Q
# VL: B1 VL
# B8: MOR07265 IgG (antibody, V domains shown)
# VH: B1 VH with E3Q, V50F, M52W, S54V, Y57W, R59Q
# VL: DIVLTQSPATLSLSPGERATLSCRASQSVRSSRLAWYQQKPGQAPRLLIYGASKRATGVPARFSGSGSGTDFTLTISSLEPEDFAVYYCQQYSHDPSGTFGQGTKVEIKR
# B9: MOR06638 IgG (antibody, V domains shown)
# VH: QVQLVQSGAEVKKPGASVKVSCKASGYTFTGNYINWVRQAPGQGLEWMGIINPHGGDTKYAQKFQGRVTMTRDTSISTAYMELSSLRSEDTAVYYCARWHHGTWIFDYWGQGTLVTVSS
# VL: DIVLTQPPSVSGAPGQRVTISCSGSSSNIGSNYVSWYQQLPGTAPKLLIYNDNQRPSGVPDRFSGSKSGTSASLAITGLQSEDEADYYCSSWDRADGSYVFGGGTKLTVLG
# B10: MOR06626 IgG (antibody, V domains shown)
# VH: B9 VH with H54T, G55K, D57W, K59L
# VL: DIVLTQPPSVSGAPGQRVTISCSGSSSNIGSNYVSWYQQLPGTAPKLLIYNDNQRPSGVPDRFSGSKSGTSASLAITGLQSEDEADYYCSTYDRRTFSVFGGGTKLTVLG
# B11: MOR06643 IgG (antibody, V domains shown)
# VH: QVQLVESGGGLVQPGGSLRLSCAASGFTFSDYAMSWVRQAPGKGLEWVSAIMYDSSSTFYADSVKGRFTISRDNSKNTLYLQMNSLRAEDTAVYYCARINYIYKGVHFDYWGQGTLVTVSS
# VL: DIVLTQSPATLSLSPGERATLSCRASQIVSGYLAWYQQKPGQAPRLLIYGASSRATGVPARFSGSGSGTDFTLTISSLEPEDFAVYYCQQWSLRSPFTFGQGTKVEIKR
# B12: MOR06657 IgG (antibody, V domains shown)
# VH: B2 VH
# VL: B2 VL with G91A, A92T, A94D, M96S, S97Q, L98M
# B13: MF-J Fab (Fab, V domains shown)
# VH: B1 VH
# VL: B1 VL
# notes: Purified Fab
# B14: MOR06631 Fab (Fab, V domains shown)
# VH: B1 VH with E3Q, V50F, M52W, S54V, Y57W, R59Q
# VL: B1 VL
# notes: Purified Fab
# B15: MOR06669 Fab (Fab, V domains shown)
# VH: B1 VH with E3Q, V50I, M52W, S54I, Y57F, R59Q
# VL: B1 VL
# notes: Purified Fab
# B16: MF-226 Fab (Fab, V domains shown)
# VH: B9 VH with Q3E
# VL: B10 VL
# notes: Purified Fab
# B17: MOR06638 Fab (Fab, V domains shown)
# VH: B9 VH
# VL: B9 VL
# notes: Purified Fab
# B18: MOR06626 Fab (Fab, V domains shown)
# VH: B9 VH with H54T, G55K, D57W, K59L
# VL: B10 VL
# notes: Purified Fab
# B19: MOR06643 Fab (Fab, V domains shown)
# VH: B11 VH
# VL: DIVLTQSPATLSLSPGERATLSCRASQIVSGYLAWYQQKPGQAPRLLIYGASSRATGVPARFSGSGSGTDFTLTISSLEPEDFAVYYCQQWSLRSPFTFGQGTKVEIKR
# notes: Purified Fab
# B20: MF-A Fab (Fab, V domains shown)
# VH: B2 VH
# VL: B2 VL
# notes: Purified Fab
# B21: MOR06657 Fab (Fab, V domains shown)
# VH: B2 VH
# VL: B2 VL with G91A, A92T, A94D, M96S, S97Q, L98M
# notes: Purified Fab
# Molecular target: T2, mesothelin on CHO-A9 cells (CHO-K1 stably transfected with the GPI-anchored C-terminal part of mesothelin) (Homo sapiens (Human), UniProt Q13421 287-598, GPI anchor)
# T2 construct: In the immunoblots the protein stood in a denatured cell extract; also called mesothelin-expressing CHO-A9 cells
# T2 sequence (Q13421 other isoform, or with tags, fused parts or gaps limits assumed): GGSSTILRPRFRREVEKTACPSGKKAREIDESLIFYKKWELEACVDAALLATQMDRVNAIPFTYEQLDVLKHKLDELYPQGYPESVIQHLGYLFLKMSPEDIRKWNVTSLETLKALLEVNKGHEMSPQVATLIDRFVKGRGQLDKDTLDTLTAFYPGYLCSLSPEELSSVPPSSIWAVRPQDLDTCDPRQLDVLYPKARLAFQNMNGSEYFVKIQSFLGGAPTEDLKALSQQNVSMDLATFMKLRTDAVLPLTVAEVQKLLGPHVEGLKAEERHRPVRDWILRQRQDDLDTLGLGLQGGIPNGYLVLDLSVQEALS
# Assay: live cell ELISA, IgG1 on CHO-A9 cells
row,EC50,Binder
1,3.9 nM,B1
2,0.8 nM,B2

# Molecular target: T3, mesothelin on NCI-H226 cells (UniProt Q13421 296-598)
# T3 construct: whole, on cells; In the immunoblots the protein stood in a denatured cell extract
# T3 sequence (Q13421 other isoform, or with tags, fused parts or gaps limits assumed): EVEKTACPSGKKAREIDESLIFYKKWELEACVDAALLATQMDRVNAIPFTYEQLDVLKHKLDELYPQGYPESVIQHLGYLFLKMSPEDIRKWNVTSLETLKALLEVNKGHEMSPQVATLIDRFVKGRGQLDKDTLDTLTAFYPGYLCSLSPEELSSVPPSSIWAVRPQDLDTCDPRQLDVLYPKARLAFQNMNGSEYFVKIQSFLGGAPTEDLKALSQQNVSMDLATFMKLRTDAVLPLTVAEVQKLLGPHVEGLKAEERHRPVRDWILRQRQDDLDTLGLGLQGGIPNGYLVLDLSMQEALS
# Assay: FACS titration, IgG on NCI-H226 cells
# Method: FACS titration was performed in a 96 well microtiter plate, in which serial dilutions of the primary antibody in a volume of 80 μl of FACS buffer (3% FCS, 0.02% NaN₃ in PBS) were mixed with 20 μl of a cell suspension consisting of 10⁶ cells/ml which had been detached with accutase or trypsin/EDTA, and resuspended in FACS buffer. Incubation was performed at 4° C. for 1 hour with agitation. Cells were washed twice with FACS buffer and resuspended in 100 μl/well of anti-human PE conjugate solution in FACS buffer. Incubation and washing was performed as before. Analysis of cell-bound antibodies was done using the FACS Array device. EC₅₀ values were determined from fluorescence medians of duplicates using Prism 4.0 software (GraphPad) applying non-linear regression fit.
row,EC50,Binder
1,0.63 nM,B3
2,0.58 nM,B4
3,2.02 nM,B5
4,0.8 nM,B6
5,0.41 nM,B7
6,1.11 nM,B8
7,0.19 nM,B9
8,0.44 nM,B10
9,0.23 nM,B11
10,0.14 nM,B12

# Molecular target: T2, mesothelin on CHO-A9 cells (CHO-K1 …)
# Assay: FACS with Scatchard analysis, IgG1 on CHO-A9 cells
row,EC50,Binder
1,0.11 nM,B1
2,0.05 nM,B2

# Molecular target: T4, human mesothelin (recombinant, soluble, purified; 40 kDa C-terminal polypeptide of the mesothelin precursor) (human, UniProt Q13421 296-598, limits assumed)
# T4 construct: also called soluble mesothelin
# Assay: SPR (Biacore), Fab on directly immobilized mesothelin
Kd,koff,Binder
9.2 nM,0.0029 s⁻¹,B13
0.09 nM,1.4e-05 s⁻¹,B14
0.24 nM,8.1e-05 s⁻¹,B15
58 nM,0.038 s⁻¹,B16
16 nM,0.0063 s⁻¹,B17
0.67 nM,0.0012 s⁻¹,B18
0.36 nM,0.00028 s⁻¹,B19
19 nM,0.079 s⁻¹,B20
0.95 nM,0.0055 s⁻¹,B21

# Molecular target: T4, human mesothelin (recombinant, soluble, …)
# Assay: SPR (Biacore 3000), Fab on covalently immobilized human mesothelin
Kd,koff,Binder
58 nM,0.038 s⁻¹,B16
16 nM,0.0063 s⁻¹,B17
0.67 nM,0.0012 s⁻¹,B18
19 nM,0.079 s⁻¹,B20
0.95 nM,0.0055 s⁻¹,B21

# Molecular target: T1, murine mesothelin (recombinant)
# Assay: SPR (Biacore 3000), Fab on covalently immobilized murine mesothelin
# Method: Shown in Table 5 are results of Biacore and ELISA studies showing cross-reactivity of antibodies of the invention to murine mesothelin. The kinetic constants kₒₙ and koff were determined with serial dilutions of the respective purified Fab fragment binding to covalently immobilized human or murine mesothelin using the Biacore 3000 instrument (Biacore, Uppsala, Sweden). Covalent antigen immobilization was achieved by a standard EDC-NHS coupling procedure. Kinetic measurements were done in PBS, pH 7.2 at a flow rate of […] using Fab concentration ranging from 1.5-500 nM. Injection time for each concentration was 1 min, followed by 3 min dissociation phase. For regeneration 5 μl 10 mM glycine buffer, pH 1.8 was used. All sensograms were fitted using the BIA evaluation software 3.1 (Biacore).
Kd,koff,Binder
1280 nM,0.14 s⁻¹,B16
320 nM,0.04 s⁻¹,B17
6.7 nM,0.0098 s⁻¹,B18
670 nM,0.27 s⁻¹,B20
360 nM,0.16 s⁻¹,B21
